Reference: patent US20110124576A1 (NOVOZYMES A S, published 2011)
Residue numbers refer to the chain shown, from its start. Names may count otherwise.

Experiments:
[1] = biological target: T1, transferrin receptor on human erythroleukemic K562 cells (human, UniProt P02786 1-760); assay: cell-based or functional assay
[2] = biological target: T1, transferrin receptor on human …; assay: specific 55Fe uptake from labelled diferric transferrin into K562 cells, 25 min at 37 C, 12.5-2000 nM; unspecific uptake (hundredfold unlabelled transferrin) subtracted; mean ± S.E.M. of three experiments
Method: Iron uptake from labelled diferric transferrins was performed as follows. K562 erythroleukemic cells, cultured in RPMI cell culture medium under standard conditions (bicarbonate-buffered, 5% CO₂, antibiotics, 10% foetal calf serum) were washed with serum-free medium containing HEPES-buffer and 1 mg/ml of bovine serum albumin and used at a concentration of 10 million cells/ml in this medium.
The reaction was started by the addition of 50 μl of cell suspension.
After 25 min at 37° C. the reaction was stopped by immersion into an ice-bath, three aliquots of 30 μL of cell suspension were transferred to new tubes and the cells were centrifuged in the cold and again after addition of an oil layer of diethylphtalate/dibutylphthalate. The supernatant was removed, the cell pellet transferred into a counter vial and lysed with 0.5 M KOH+1% Triton X-100. The lysates were neutralized with 1M HCl after overnight lysis, mixed with Readysolv scintillation cocktail and counted in the Packard Liquid Scintillation Counter.

[3] = biological target: T1, transferrin receptor on human …; assay: cell-based or functional assay; remark: listed apart in the source

T1 sequence (P02786 whole entry): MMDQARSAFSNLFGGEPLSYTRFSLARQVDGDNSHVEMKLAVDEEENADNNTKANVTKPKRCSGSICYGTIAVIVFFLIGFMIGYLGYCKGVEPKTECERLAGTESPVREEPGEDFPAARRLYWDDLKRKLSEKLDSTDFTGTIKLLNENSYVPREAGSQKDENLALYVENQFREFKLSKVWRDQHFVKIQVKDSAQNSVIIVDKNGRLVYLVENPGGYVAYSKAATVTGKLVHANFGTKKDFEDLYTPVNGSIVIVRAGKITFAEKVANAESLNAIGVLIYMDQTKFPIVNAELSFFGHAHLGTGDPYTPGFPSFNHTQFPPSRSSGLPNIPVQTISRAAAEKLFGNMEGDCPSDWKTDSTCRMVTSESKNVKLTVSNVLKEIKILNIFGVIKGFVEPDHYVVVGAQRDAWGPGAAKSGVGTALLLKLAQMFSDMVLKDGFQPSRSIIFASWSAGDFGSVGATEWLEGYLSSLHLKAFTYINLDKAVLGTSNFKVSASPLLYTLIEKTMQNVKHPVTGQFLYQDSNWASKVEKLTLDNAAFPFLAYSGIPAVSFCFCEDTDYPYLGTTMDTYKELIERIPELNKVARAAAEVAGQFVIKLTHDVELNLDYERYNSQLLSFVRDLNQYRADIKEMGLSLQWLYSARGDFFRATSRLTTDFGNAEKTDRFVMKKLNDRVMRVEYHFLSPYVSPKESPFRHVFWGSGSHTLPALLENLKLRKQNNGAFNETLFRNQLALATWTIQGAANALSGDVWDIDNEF

B1: recombinant human transferrin (S415A, T613A) (ligand)
chain: VPDKTVRWCAVSEHEATKCQSFRDHMKSVIPSDGPSVACVKKASYLDCIRAIAANEADAVTLDAGLVYDAYLAPNNLKPVVAEFYGSKEDPQTFYYAVAVVKKDSGFQMNQLRGKKSCHTGLGRSAGWNIPIGLLYCDLPEPRKPLEKAVANFFSGSCAPCADGTDFPQLCQLCPGCGCSTLNQYFGYSGAFKCLKDGAGDVAFVKHSTIFENLANKADRDQYELLCLDNTRKPVDEYKDCHLAQVPSHTVVARSMGGKEDLIWELLNQAQEHFGKDKSKEFQLFSSPHGKDLLFKDSAHGFLKVPPRMDAKMYLGYEYVTAIRNLREGTCPEAPTDECKPVKWCALSHHERLKCDEWSVNSVGKIECVSAETTEDCIAKIMNGEADAMSLDGGFVYIAGKCGLVPVLAENYNKADNCEDTPEAGYFAVAVVKKSASDLTWDNLKGKKSCHTAVGRTAGWNIPMGLLYNKINHCRFDEFFSEGCAPGSKKDSSLCKLCMGSGLNLCEPNNKEGYYGYTGAFRCLVEKGDVAFVKHQTVPQNTGGKNPDPWAKNLNEKDYELLCLDGTRKPVEEYANCHLARAPNHAVVTRKDKEACVHKILRQQQHLFGSNVADCSGNFCLFRSETKDLLFRDDTVCLAKLHDRNTYEKYLGEEYVKAVGNLRKCSTSSLLEACTFRRP
notes: Secreted from S. cerevisiae; 55Fe-loaded (diferric) in the K562 assay; also called Deltaferrin; rTf
Specific iron uptake Bmax [1]: 2830 fmol 55Fe/10^6 cells x 25 min
Kd [2]: 130 nM

B2: fluorescein conjugated thiotransferrin (S28C, S415A, T613A) (ligand)
chain: B1 chain with S28C
modifications: fluorescein-5-maleimide conjugated to the free thiol of Cys 28
notes: Iron-loaded in SPR, 55Fe-loaded in the K562 assay; also called Fluorescein conjugated recombinant thiotransferrin (S28C, S415A, T613A)
specific iron uptake into K562 cells [3]: > 5 % of the level for the transferrin (S415A, T613A) control
Specific iron uptake Bmax [1]: 2430 fmol 55Fe/10^6 cells x 25 min
Kd [2]: 154 nM

B3: fluorescein conjugated thiotransferrin (S415C, T613A) (ligand)
chain: B1 chain with A415C
modifications: fluorescein-5-maleimide conjugated to the free thiol of Cys 415
notes: Iron-loaded in SPR, 55Fe-loaded in the K562 assay; also called Fluorescein conjugated recombinant thiotransferrin (S415C, T613A)
specific iron uptake into K562 cells [3]: > 5 % of the level for the transferrin (S415A, T613A) control
Specific iron uptake Bmax [1]: 3250 fmol 55Fe/10^6 cells x 25 min
Kd [2]: 189 nM

B4: recombinant thiotransferrin (S415C, T613A) (ligand)
chain: B1 chain with A415C
modifications: free thiol at Cys 415
notes: Iron-loaded in SPR, 55Fe-loaded in the K562 assay; also called from Strain 1 [pDB3773]
specific iron uptake into K562 cells [3]: > 5 % of the level for the transferrin (S415A, T613A) control
Specific iron uptake Bmax [1]: 2360 fmol 55Fe/10^6 cells x 25 min
Kd [2]: 203 nM

B5: recombinant thiotransferrin (S28C, S415A, T613A) (ligand)
chain: B1 chain with S28C
modifications: free thiol at Cys 28
notes: Iron-loaded in SPR, 55Fe-loaded in the K562 assay; also called from Strain 1 [pDB3767]
specific iron uptake into K562 cells [3]: > 5 % of the level for the transferrin (S415A, T613A) control
Specific iron uptake Bmax [1]: 3020 fmol 55Fe/10^6 cells x 25 min
Kd [2]: 209 nM
